Experimental findings from publication doi:10.64898/2025.12.19.695307 (bioRxiv, 2025) are described below.

Assay [1] deals with SARS-CoV-2 Omicron EG.5.1 RBD (SARS-CoV-2 Omicron EG.5.1, F490S). Description: BLI.
For the next assay, the target named is SARS-CoV-2 BA.2.86 RBD (SARS-CoV-2 Omicron BA.2.86, strain, N354 glycosylation). Description: BLI.
Assay [2] concerns the target SARS-CoV-2 Omicron BA.4/5 RBD (SARS-CoV-2 Omicron BA.4/5, L452R). Description: BLI. (In BLI a coated tip is dipped into the sample, and binding shifts an interference pattern.)
A further assay concerns the target SARS-CoV-2 JD.1.1 RBD (SARS-CoV-2 Omicron JD.1.1, strain). In words: BLI.
The target of assay [3] is SARS-CoV-2 Kappa (B.1.617.1) RBD (SARS-CoV-2 Kappa (B.1.617.1), L452R). Description: BLI.
The target of assay [4] is T1, SARS-CoV-2 KP.3 RBD (SARS-CoV-2 Omicron KP.3, strain, N354 glycosylation). Description: BLI.
Assay [5] deals with SARS-CoV-2 Delta (B.1.617.2) RBD (SARS-CoV-2 Delta (B.1.617.2), L452R). Description: BLI.
The target in assay [6] is SARS-CoV-2 Omicron XBB.1.5 RBD (SARS-CoV-2 Omicron XBB.1.5, F490S). Description: BLI.
The target in another assay is SARS-CoV-2 JN.1 RBD (SARS-CoV-2 Omicron JN.1, strain, N354 glycosylation). In words: BLI.
Another assay addresses SARS-CoV-2 HK.3 RBD (SARS-CoV-2 Omicron HK.3, strain). Description: BLI.
Assay [7] has as its target SARS-CoV-2 Omicron BQ.1.1 RBD (SARS-CoV-2 Omicron BQ.1.1, R346T | L452R). Description: BLI.
The target in assay [8] is T1, SARS-CoV-2 KP.3 RBD. In words: cell-based or functional assay.

B1: ZL525 (antibody, V domains shown)
V domain 1: QVQLVQSGAEVKKPGSSMKVSCQASGGTFSSHPISWIRQAPGQGLEWMGRIIPIAGMTDYGQKFQGRITITADTSTSTSYVELRGLRSQDTAFYYCAKDVGYSDYGSAYYFHTWGQGTLITVSS
V domain 2: QSVLTQPPSVSGAPGQRVTISCTGSNSNIGAGYDVHWYQQLPGTAPKLLIYRNNKRPSGVPDRFSGSKSDTSASLAITGLQAEDEAHYYCQSFDSSLGGSLFGGGTKLAVL
Take B1: the Kd in [1] was < 0.71 nM; with SARS-CoV-2 BA.2.86 RBD, < 1.11 nM; in assay [2], < 0.71 nM; in the assay with SARS-CoV-2 JD.1.1 RBD it was < 1.11 nM; in assay [3] it was < 0.71 nM; in the assay with SARS-CoV-2 KP.3 RBD [4] it was < 1.11 nM. The Kd in assay [5] is < 0.71 nM; in assay [6], < 0.71 nM; in the assay with SARS-CoV-2 JN.1 RBD it was < 1.11 nM; in the assay with SARS-CoV-2 HK.3 RBD it was < 1.11 nM; in assay [7], < 0.71 nM. For the same molecule, in the assay with SARS-CoV-2 KP.3 RBD [8], the “IC50 of neutralisation of authentic KP.3 virus (focus reduction, Vero E6)” value is 0.107 µg/mL.

For orientation: Kd means the concentration at which binding is half-saturated.
